According to patent US20220275390A1 (TRUSTEES OF PRINCETON UNIVERSITY, published 2022):
Numbering of substitutions follows the chain as printed.

T1: S1Cr_D23A+E24A+R91A
T1 construct: variant of m7
T1 chain: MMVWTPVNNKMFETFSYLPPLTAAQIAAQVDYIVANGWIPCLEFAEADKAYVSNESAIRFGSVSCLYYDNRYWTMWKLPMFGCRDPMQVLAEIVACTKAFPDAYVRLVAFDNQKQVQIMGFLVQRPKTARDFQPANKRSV

T2: S1Cr_D23A
T2 construct: variant of m7
T2 chain: T1 chain with A24E, A91R

T3: S1Cr_D23A+E24A
T3 construct: variant of m7
T3 chain: T1 chain with A91R

T4: S1Cr_M87D/V94D
T4 construct: variant of m7
T4 chain: T1 chain with A23D, A24E, M87D, A91R, V94D

B1: 24 amino acid EPYC1 fragment spanning RBM 2 (peptide)
peptide: TNRVSPTRSVLPANWRQELESLRN
notes: also called EPYC1 peptide; RBM 2 EPYC1 fragment
B2: Chlamydomonas reinhardtii Essential Pyrenoid Component 1 (EPYC1) (other)
chain: MATISSMRVGAASRVVVSGRVKTVKVAARGSWRESSTATVQASRASSATNRVSPTRSVLPANWRQELESLRNGNGSSSAASSAPAPARSSSASWRDAAPASSAPARSSSASKKAVTPSRSALPSNWKQELESLRSSSPAPASSAPAPARSSSASWRDAAPASSAPARSSSSKKAVTPSRSALPSNWKQELESLRSSSPAPASSAPAPARSSSASWRDAAPASSAPARSSSASKKAVTPSRSALPSNWKQELESLRSNSPAPASSAPAPARSSSASWRDAPASSSSSSADKAGTNPWTGKSKPEIKRTALPADWRKGL
notes: also called WT EPYC1

Assays:
[1] = biological target: T5, Chlamydomonas reinhardtii Rubisco holoenzyme (L8S8) (Chlamydomonas reinhardtii, UniProt P00877 3-475); assay: SPR, Rubisco immobilized, peptide at 0-4.0 mM in solution (FIG. 4C)
T5 construct: Purified from C. reinhardtii strain cMJ030 (sucrose gradient, anion exchange); also called purified Rubisco; Cr L8S8 Rubisco
From the text: FIGS. 4A-4C show the EPYC1 fragment that was used to generate the cryoelectron microscopy structure shown in FIGS. 5A-5D, as well as the binding affinity of the EPYC1 fragment for Rubisco. […] The four nearly identical repeats (Repeats 1-4), flanked by short N- and C- termini are indicated. The dark grey boxes represent the ten RBMs on EPYC1. The dark grey bar above the boxes (“EPYC1 peptide”) spans RBM 2 of EPYC1 and represents the 24 amino acid EPYC1 fragment (SEQ ID NO: 51) that was used to generate the cryoelectron microscopy structure of Rubisco bound to the RBM 2 EPYC1 fragment shown in FIGS. 5A-5D. FIGS. 4B-4C provide results of SPR experiments to determine the binding affinity of the 24 amino acid EPYC1 fragment diagramed in FIG. 4A for Rubisco. […] The response difference (Resp. Diff., in RU) is shown on the y-axis.
Surface Plasmon Resonance (SPR) Assay Rubisco was immobilized on a surface and peptides in solution were flowed over the surface. Surface plasmon measurements of binding of individual peptides to Rubisco were assayed (FIG. 3B).

[2] = biological target: T5, Chlamydomonas reinhardtii Rubisco …; assay: SPR, steady-state fit
[3] = biological target: T5, Chlamydomonas reinhardtii Rubisco …; assay: SPR; highest binding affinity of all peptides tested
S1Cr_D23A+E24A+R91A = biological target: T1, S1Cr_D23A+E24A+R91A; assay: yeast two-hybrid, EPYC1 as BD and SSU variant as AD
From the text: (§1) FIGS. 9A-9C show the results of a yeast two-hybrid (Y2H) assay to measure the interaction between EPYC1 and Rubisco SSU variants. […] The images shown were taken following three days of cell growth. The Rubisco SSU residues that form salt bridges with EPYC1 residues are bolded (D23, E24, and R91) and the residues that form the hydrophobic pocket with EPYC1 residues are bolded and italicized (M87 and V94). The “Control” images were taken from cells grown for three days on SD-L-W media and the “Test” images were taken from cells grown for three days on SD-L-W-H with 3-AT. Growth of yeast cells expressing the indicated EPYC1 and Rubisco SSU variants was measured after three days on SD-L-W-H with varying 3-AT concentrations. The highest concentration of 3-AT (0, 1, 2.5, 5, 10, and 20 mM) permissive for the growth of each EPYC1 and Rubisco SSU variant combination is shown, as indicated in the “Key” on the right.
(§2) Mutagenesis of EPYC1, Mutagenesis of Rubisco, Yeast Two-hybrid, Peptide Arrays and SPR Assays To determine the importance of individual EPYC1 residues for binding to Rubisco, the impact on Rubisco binding of every possible single amino acid substitution for EPYC1 RBM 2 was determined (FIG. 8). To determine the importance of individual Rubisco residues for binding to EPYC1, targeted mutations of the amino acids identified from atomic modeling were tested in a yeast two-hybrid assay as in van Nues and Beggs (Genetics 157: 1451-1467, 2000). Peptide arrays and SPR assays were performed as in Example 1.

S1Cr_D23A = biological target: T2, S1Cr_D23A; assay: as above
From the text: as §1, §2

S1Cr_D23A+E24A = biological target: T3, S1Cr_D23A+E24A; assay: as above
From the text: as §1, §2

S1Cr_M87D/V94D = biological target: T4, S1Cr_M87D/V94D; assay: yeast two-hybrid, Control SD-L-W, Test SD-L-W-H with 3-AT (concentration not given)
From the text: as §1
Mutagenesis of EPYC1, Mutagenesis of Rubisco, Yeast Two-hybrid, Peptide Arrays and SPR Assays To determine the importance of individual EPYC1 residues for binding to Rubisco, the impact on Rubisco binding of every possible single amino acid substitution for EPYC1 RBM 2 was determined (FIG. 8). […]

S1Cr_M87D = S1Cr_M87D (Chlamydomonas reinhardtii); assay: cell-based or functional assay
S1Cr_V94D = S1Cr_V94D (Chlamydomonas reinhardtii); assay: cell-based or functional assay
[4] = biological target: Chlamydomonas reinhardtii Rubisco small subunit 1 (Chlamydomonas reinhardtii, UniProt P00873 46-185); assay: cell-based or functional assay

| Binder | Kd [1] | Ka [2] | Kd [3] | binding result (S1Cr_D23A+E24A+R91A) | binding result (S1Cr_D23A) | binding result (S1Cr_D23A+E24A) | binding result (S1Cr_M87D/V94D) | highest 3-AT concentration permissive for growth (Y2H), box pattern read against the printed key (S1Cr_M87D) | highest 3-AT concentration permissive for growth (Y2H), box pattern read against the printed key (S1Cr_V94D) | highest 3-AT concentration permissive for growth (Y2H), box pattern read against the printed key [4] |
| --- | --- | --- | --- | --- | --- | --- | --- | --- | --- | --- |
| B1 | 3.09 mM | 324 M⁻¹ | 3 mM | – | – | – | – | – | – | – |
| B2 | – | – | – | no binding | no binding | no binding | no binding | 0 mM 3-AT | 0 mM 3-AT | 20 mM 3-AT |
